Here are results for 1 substance from paper PMC11674972.

The target in experiment [1] is FcγRI (Biotinylated Human CD64 Protein, His, Avitag) (human) (UniProt P12314). In words: SPR; Biacore T200; biotinylated FcγRI immobilised on streptavidin chip SA; AVT 1.875-30 nM; 1x HBS-EP pH 7.4, 22 °C; double referenced; steady-state affinity algorithm. A general note: Surface plasmon resonance follows binding to a sensor surface in real time, without labels.
The target is the same in experiment [2]. Kind of experiment: SPR; Biacore T200; biotinylated FcγRI immobilised on streptavidin chip SA; AVT 1.875-30 nM; 1x HBS-EP pH 7.4, 22 °C; 1:1 Langmuir binding model (fit poorer than the heterogeneous ligand model).
The target is the same in experiment [3]. In words: SPR; Biacore T200; biotinylated FcγRI immobilised on streptavidin chip SA (target 200 RU); AVT 1.875-30 nM injected 60 s at 50 uL/min; 1x HBS-EP pH 7.4, 22 °C; double referenced; heterogeneous ligand kinetics model.

Several values for one entry are separate records, joined by “and”; a condition that tells them apart may be missing. Equal entries are not always repeated.

UniProt P12314, sequence (P12314 16-292): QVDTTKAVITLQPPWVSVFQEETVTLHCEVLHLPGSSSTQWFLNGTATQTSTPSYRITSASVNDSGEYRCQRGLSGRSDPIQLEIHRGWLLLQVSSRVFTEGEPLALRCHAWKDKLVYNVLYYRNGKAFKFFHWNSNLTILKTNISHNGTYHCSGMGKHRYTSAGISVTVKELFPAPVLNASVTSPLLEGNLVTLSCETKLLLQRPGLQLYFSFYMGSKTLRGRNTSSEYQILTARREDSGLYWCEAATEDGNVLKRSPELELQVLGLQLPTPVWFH

Usually Kd stands for the equilibrium constant for the complex coming apart. Bevacizumab (Avastin) (antibody) yielded a Kd in experiment [1] of 13500 pM. Moreover, the Kd in experiment [2] stood at 420 pM. For the same substance, in experiment [3], the KD, set 1 (heterogeneous ligand model) is 2.67 pM and 1.55 pM and 2.59 pM; the KD, set 1 (heterogeneous ligand model), mean stood at 2.27 pM; the ka, set 1 (heterogeneous ligand model) is 333000 M⁻¹ s⁻¹ and 276000 M⁻¹ s⁻¹ and 335000 M⁻¹ s⁻¹; the ka, set 1 (heterogeneous ligand model), mean amounted to 315000 M⁻¹ s⁻¹. Further, in experiment [3], the kd, set 1 (heterogeneous ligand model) was 8.9e-07 s⁻¹ and 4.27e-07 s⁻¹ and 8.67e-07 s⁻¹; the kd, set 1 (heterogeneous ligand model), mean turned out to be 7.28e-07 s⁻¹.
